One may read the Km as the substrate concentration at which the rate is half of its maximum. A word on the kcat: it is the number of substrate molecules converted per active site and unit of time at saturation. As usually defined, the kcat/Km is the turnover number divided by the Michaelis constant.

Substrate in data set [1]: C[C@H](O)C(=O)O
The experiment in a line: purified protein. As to conditions: NAD+.

Substrate in data set [2]: NC(=O)c1ccc[n+]([C@@H]2O[C@H](COP(=O)([O-])OP(=O)(O)OC[C@H]3O[C@@H](n4cnc5c(N)ncnc54)[C@H](O)[C@@H]3O)[C@@H](O)[C@H]2O)c1
Kind of data set: purified protein. As to conditions: varied: cofactor.

Substrate in data set [3]: CC(=O)C(=O)O
The experiment in a line: purified protein. It counts as biochemical, Babesia orientalis. As to conditions: NADH.

Substrate in data set [4]: NC(=O)C1=CN([C@@H]2O[C@H](COP(=O)(O)OP(=O)(O)OC[C@H]3O[C@@H](n4cnc5c(N)ncnc54)[C@H](O)[C@@H]3O)[C@@H](O)[C@H]2O)C=CC1
The experiment in a line: purified protein. Format: biochemical, Babesia orientalis. As to conditions: varied: cofactor.

Substrate in data set [5]: CC(=O)c1ccc[n+]([C@@H]2O[C@H](COP(=O)([O-])OP(=O)(O)OC[C@H]3O[C@@H](n4cnc5c(N)ncnc54)[C@H](O)[C@@H]3O)[C@@H](O)[C@H]2O)c1
Kind of data set: enzyme kinetics (Km), used as synthetic cofactor, lactate to pyruvate. Format: biochemical, Babesia orientalis. The following applies: varied: cofactor. From the text:
enzyme kinetics (Km), used as synthetic cofactor, lactate to pyruvate on Babesia orientalis lactate dehydrogenase (BoLDH) | BoLDH catalyzes the conversion of lactate to pyruvate using synthetic APAD^+ instead of NAD^+ as a cofactor

B1: Babesia orientalis lactate dehydrogenase (BoLDH) (Babesia orientalis) (protein)
chain: MLKGFLSTMSPAVRRNKISLIGAGNIGGVMAYLAQLKELGDVVLFDIAPKLGEAKALDIMHANAIYDTAHKAIGTANYEDIADSDVCIITAGLAKLPNKKDEEWSRDDLVAPNSKIMFTIGDNIKKYAPNAFVICITNPLDVMVKMLLKATGFPKNKVVGMGGLLDSSRMCHYIADKLNVNPRYVHGSCIGGHGDSMIPLVNHVTVNGIPIQLFVERGDITQAELDKIAQRTIGSGMELVQLYGNGSAYFAPATAAIEMASAYLNDKKSVIVCSCYLEGEYGHSDVYLGTPAIIGANGIEKIITLKLSSEEQAKLDASVKEIMRLEALAG
notes: full-length ORF (330 residues), N-terminal His6 tag, recombinant rBoLDH
With B1, the Michaelis-Menten constant (Km) in the data set “purified protein [1]” turned out to be 166 ± 24.2 µM; in the data set “purified protein [2]”, 493 ± 69.2 µM; in the data set “purified protein [3]” it was 102 ± 19.2 µM; in “purified protein [4]”, 126 ± 19.9 µM; in data set [5], 395 ± 49.9 µM. Also, the turnover number (kcat) was 30.5 s⁻¹ in the data set “purified protein [1]”; 21.5 s⁻¹ in “purified protein [2]”; 56.5 s⁻¹ in the data set “purified protein [3]”; 115 s⁻¹ in “purified protein [4]”; 62.3 s⁻¹ in data set [5]. The kcat/Km in the data set “purified protein [1]” was found to be 184000 M⁻¹ s⁻¹; in “purified protein [2]” it was 43600 M⁻¹ s⁻¹; in “purified protein [3]” it was 554000 M⁻¹ s⁻¹; in the data set “purified protein [4]” it was 913000 M⁻¹ s⁻¹; in data set [5], 157000 M⁻¹ s⁻¹.

The values are drawn from article PMC8766848, “The Structural Basis of Babesia orientalis Lactate Dehydrogenase” (Frontiers in Cellular and Infection Microbiology, 2022).
